B1: TPR t1 (parent)
chain: GACCAAUCUGCCCUCAGAGCUCGAGAACAUCUUCGGAUGCAGAGGAGGCAGGCUUCGGUGGCGCGAUAGCGCCAACGUCCUCAACCUCCAAUGCAUCCCACCACAUGAUGAUGCCUGAAGAGCCUUGGUUUUUUG

Variants of: B1
Assay: polymerase ribozyme fitness, log enrichment relative to wild type (log ratio); higher = more active; in vitro selection for triplet polymerase activity
Method in brief: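 Mutant libraries of each subunit of a heterodimeric triplet polymerase ribozyme were built by PCR and transcribed. Each library went through one round of in vitro selection in triplicate: annealing with biotinylated primer, partner subunit and triplets, frozen incubation at −7 °C, gel excision of extended constructs, streptavidin-bead capture and RT-PCR. Input and output libraries were Illumina-sequenced; only genotypes with ≥10 input reads and ≥1 read per output were kept. Fitness is log2(genotype enrichment/wild-type enrichment), using inverse-variance-weighted replicate averages.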

Variant | polymerase ribozyme fitness (log ratio)
GACCAAUCUUCCCUCAGAGCUCGAGAACAUCUUCGGAUGCAUAGAAGGCAGGCUUCGGUGUCGCGAUAGCGCCAACGUCCUCAAUCUCCAAUGCAUCCCACCACAUGAUGAUGCCUGAAGAGCCUUGGUUUUUUG | -2.25
GACCAAUCUGCCCUCAGAGCUUGUGAACAUCUUCGGAUGCAGAGGAGGCAGGCUUCUGUGGCGCGAUAGCGCCAACGUCCUUAACCUCCAAUGCAUCCCACCACAUGAUGAUGCAUGAAGAGCCUUGGUUUUUUG | -6.34
GACCAAUCUGCCCUCAGAGCUCGAGAACAUCUUCGGAUAAAGAGGAGGCAGGCUUCGGUGGCGCGAUAGCGCCAACGUCCUCAACCUCCAAUGCAUCCCACCACAUGAUGAUGCCUGAAGAGCCUUGGUUUUUUG | -3.25
GACCAAUCGGCCCUCAGAGCUCGAGAACAUCUUCGGAUGCAGAGUAGGCAGGCUUCGGUGGCGCGAUAGCGCCAACGUCCUCAACCUCCAAUGCAUCCCACCACAUGAUGAUGCCUGAAGAGCCUUGGUUUUUUG | -0.0404
GUCCAAUCUGCCUUCAGAGCUCGAGAACAUCUUCGGAUGCAGAGGAGGCAGGCUUCGGUGGCGCGAUAGCGGCAACGUCCUCAACCUCCAAUGCAUCCCACCACAUGAUGAUGUCUGAAGAGCCUUGGUUUUUUG | -3.41
GACCAAUCCGCCCUCAGAGCUCGAGAACAUCUUCGGAGGCAGAGGAGGCAGGCUUCGGUGCCGCGAUAGCGCCAACGUCCUCAACCUCCAAUGCAUCCCAACACAUGAUGAUGCCUGAAGAGCCUUGGUUUUUUG | -3.61
GACCAAUCUGCCCUCCGAGCUCGAGAACAUCUUCGGAUGCAGAGGAGGCUGGCUUCGGUGGCGCGAUAGCGCCAACGUCCUCAACCUCCAAUGCAUCCCACCACAUGAUGAUGCCUGAAGAGCCUUGGUUUUUUG | -4.64
GACCAAUCUGCCCUCAGAGCUCGAGAACAUCUUCGGAUGCAGAGGAGGCAGGCUUCGGUGGCGCGAUAGCGCUAACGUCCUUAACCUCCAUUGCAUCCCUCCACAUGAUGAUGCCUGAAGAGCCUUGGUUUUUUG | -3.21
GACCAAGCUGCCCUCAGAGCUCGAGAACAUCUUCGGAUGCAGUGGAGUCAGGCUUCGGUCGCGCGAUAGCGCCAACGUCCUCAACCUCCAAUGCAUCCCACCACAUGAUGAUGCAUGAAGAGCCUAGGUUUUUUG | -3.03
GACCAAUCUGCCCUCAGAGCUCGAGAACAUCUUCGGAUGCAGAGGAGGCCGGCUUCGGUGGCGCGAUAGCGCCAACGUCCUCAACCUCCAAUGCAUCCCACCACAUGAUGAUGCCUGAAGAGCAUUGGUUUUUUG | 0.557
GACCAAUCGGCCCUCAGAGCUCGAGAACAUCUUCGGAUGCAGAGGAGGCAGGCUUCGGUGGCGCGAUAGCGUCAACGUCCUCAACCUCCAAUGCAUCCCACAACAUGAUGAUGCCUGAAGAACCAUGGUUUUUUG | -1.75
GACCAAUCUGCCCUCAGAGCUCGAGAACAUCUUCGGAUGCAGAGGAGGCAGGCUUCGGUGGCGCGAUAGAGCCAACGUCCUCAACCUCCAAUGCAUCCCUCCACAUGAUGAUGCCUGAAGAGCCUUGGUUUUUUG | -2.07
GACCAAUCUGCCCUCAGAGUUCGAGAACAUCUUCGGAUGCAGAGGAGGCAGCCUUCGGUGGCGCGAUAGCGUCAACGUCCUCAACCUCCAAUGCAUCCCACCACAUGAUGAUGCCUGAAGAGCCUUGGUUUUUUG | -2.41
GACCUAUCUACCCUCAGAGCUCGAGAACAUCUUCGCAUGCAGAGGAGGCAGGCUUCGGUCGCGCGAUAGCGCCAACGCCCUCAACCUCCAAUGCAUCCCACCACAUGAUGAUGCCUGAAGAGCUUUGGUUUUUUG | -2.58
GACCAAUCUGCCCUCAGAGCUCGAGAACAUCUUCGGAUGCAGAGGAGGGAGGCUUCGGUGGCGCGAUAGCGUCAACGUCCUCAACCUCCAAUGCAUCCCACCACAUGAUGAUGCCUGAAGAGCCUUGGUUUUUUG | -0.921
GACCAAUCUGCCCUCAGAGCUCGAGAACAUCUUCGGAUGUAGAGGAGGCAGGCUUCGGUGGCGCGAUAGCGCCAACGUCCUCAACCUCCAAUGCAUCCCACCACAUGAUGAUGCCUGAAGAGCCUUGGUUUUUUG | -0.543
GACCAAUCUGCCCUCAGAGCUCGAGAACAUCUUCGGAUGCAGAGGAGGCAGGGUUCGGUGGCGCGAUAGCGCCAACGUCGUCAACCUCCAAUGCAUCCCACCACAUGAUGAUGCAUGAAGAGCCUUGGUUUUUUG | -2.69
GACCAAUCUGCCCUCAGAGCUCGAGAACAUCUUCGGAUGCAGAGUAGGCAGGUUUCGGUGGCGCGAUAGCGCCAACGUCCUCAACCUCCAAUGCAUCCCACCACUUGAUGAUGCCUGAAGAGCCUUGGUUUUUUG | -3.69
GACCAAUCUGCCCUCAGAGCUCGAGAACAUCUUCGGAUGCAGAGGAGGAAGGCUUCGGUGGCGCGAUAGCGCCAACGUCCUCAACCUCCAAUGCAUCCCACCACAUGAUGAUCCCUGAAUAGCCUUGGUUUUUUG | -4.69
GACCAAUCUGCCCUCAGAGCUCGAGAACAUCUUCGGAUGCAGAGGAGGCAGGCUUCGGUGGCGUGAUAGCGCCAAGGUCCUCAACCUCCAAUGCAUCCCACCACAUGAUGAUGCCUGAAGAGCCUUGGUUUUUUG | -3.51
GACCAAUCUGCCCUCAGAGCUCGAGAACAUCUUCGGAUCCAGAGGAGGCAGGCUUCGGUGGCGCGAUAGCGCCAACGACCUCAACCUCCAAUGAAUCCCACCACAUGAUGAUGCCUGAAGAGAAUUGAUUUUUUG | -0.0279

From the RNAGym collection of RNA variant scans (doi:10.1073/pnas.2313332121)
